From the DeepSol protein solubility set

Experiment: soluble on expression in E. coli; label from the status in PepcDB or PDB records

Row | Sequence | soluble on expression in E. coli
1 | MSLSRYEKIISARWIITVETDGEVLENHAIAIRDGKIAAIIPAADAAGLEADERLELPDHVLMPGLINLHGHSAMSLLRGLADDKALMDWLTNYIWPTEGKHVHDDFVFDGSLLAMGEMIRGGTTTINDMYFYNAAVARAGLASGMRTFVGCSILEFPTNYASNADDYIAKGMAERSQFLGEDLLTFTLAPHAPYTVSDDTFRKVVTLAEQEDMLIHCHIHETADEVNNSVKEHGQRPLARLQRLGLLSPRLVAAHMVHLNDAEVELAARHGLSTAHNPASNMKLASGISPVSKLMDAGVAVGIGTDGAASNNKLDMLAETRLAALLAKVGTLDPTSVPAAAAIRMATLNGARALGIADKVGSVKVGKQADLIALDLAQLETAPAFDPISHVVYAAGREQVSHVWVKGRALMRERKLTTLDESDLKARAGDWRNRILAKEGHHHHHH | soluble
2 | RTVAQNASETTVSYDTDTAVLSEADVLRIALSENATVKVADMDVRKQEYARRAARADLFPKVDLNGVYSHTLKKQVLYIDMPGFSSSEGIEMGRTHNTQGGVNVSMPLVSAQLWKSIAMTGEQLDLALEKARSSRIDLVAEVKKAYLSVLLAEDSYGVFKRSYDNALANYKNISDKFDRGLVAEYDKIRANVQVRNIEPNLLQAQNSVALALWQLKVLMSMEVETPIRLSGSLSDYKEQVYTGYFAADTLISNNSSLRQLDIQRRLAVSADKLNKYSFLPTLNLGGQYTYSLNSNDIKFWGEGQR | not soluble
3 | MEASSSAQAKIADMREKLGREVRVFETSSISQRPSQVSSADDESDDFYEFTPADFYRLLATKKEDKSLKTRKIREAEEAARRSKLTKAVIRVRFPDNHTLEATFHPSEKIQGLIDLVKRVVAHPDVPFYLYTTPPKKQIKDFSQDFYSAGFVPGAIVYFSNDQPKDDGGSSTPYLNEEILSLKDLEAMTKAVEPVESSSEPATVDSSAVPVEHERKSTEKKTTKPKWFKM | soluble
4 | SLLKLAIPKGRLEEKVMTYLKKTGVIFERESSILREGKDIVCFMVRPFDVPTYLVHGVADIGFCGTDVLLEKETSLIQPFFIPTNISRMVLAGPKGRGIPEGEKRIATKFPNVTQRYCESKGWHCRIIPLKGSVELAPIAGLSDLIVDITETGRTLKENNLEILDEIFVIRTHVVVNPVSYRTKREEVVSFLEKLQEVIEHDSNEQSRGEGGSHHHHHH | soluble
5 | QIVDCWETWSRCTKWSQGGTGTLWKSCNDRCKELGRKRGQCEEKPSRCPLSKKAWTCICY | soluble
6 | ALAQKRDNVLFQAATDEQPAVIKTLEKLVNIETGTGDAEGIAAAGNFLEAELKNLGFTVTRSKSAGLVVGDNIVGKIKGRGGKNLLLMSHMDTVYLKGILAKAPFRVEGDKAYGPGIADDKGGNAVILHTLKLLKEYGVRDYGTITVLFNTDEEKGSFGSRDLIQEEAKLADYVLSFEPTSAGDEKLSLGTSGIAYVQVNITGKASHAGAAPELGVNALVEASDLVLRTMNIDDKAKNLRFNWTIAKAGNVSNIIPASATLNADVRYARNEDFDAAMKTLEERAQQKKLPEADVKVIVTRGRPAFNAGEGGKKLVDKAVAYYKEAGGTLGVEERTGGGTDAAYAALSGKPVIESLGLPGFGYHSDKAEYVDISAIPRRLYMAARLIMDLGAGK | soluble
7 | TGASNYYIIFTSGTTGVPKGVQISHDNLVSFTNWLLQDFGLEEGARFLAQAPYSFDLSVMSIYPALALGGSLTPLPNEIINDFKQLFTRLPQLTIDVWVSTPSFIELCLMEPSFDGEHLPALRTFLFCGEELPKPTAEKLAARFPTAHIYNTYGPTEATVAISAIEITQEVLKSVQ | not soluble
8 | MAHHHHHHMQSSISQEKLQLMQKNFNLVDLNKDGKIAAEEFKTLLRLLGQTKTEKEMDEMVDKHFEDAPIGEEQQQDAAEAADKGGANEGTPSTAKQLGGQ | soluble
9 | MGSDKIHHHHHHMSNSSIKSKTALLRNGETQKGNGYPEANDYSARILETMQTGVVFFNTEQIISGINNLACEDLQIPRDPSGHKITDIISIIHQEKDIFPELIARLKSSETDMEKLPIDTLIRSLETKVQFFASGCIMQLETGRYLLAFRNTMDEVTHEHLLSMILARTKIFPWFFDLKRNKMLIDAHWFSYLGIPAGDCEITIEKFFSRVHPNERDMLADALQKQLSEKEIPDSFSYRLQRGDGSWEWFSEQSMYLSKTNDGSPYRIVGVCHSIQEHKNTEDKLRAARNKAQESDRLKSAFLANMSHEIRTPLNAIVGFSNLIAGGIVDLDTEEARDYSALISKNCNYLLTLVSDVLDLSCIESDTMTFKFTVYPLTRLLTEIYQKYENRIPQEVQFNLLLPTDNVEIETDAVRLRQVIEHLLDNAAKFTVKGHIDIGYALSDHGEKIYVFVADTGCGIPSDQYKKVFERFYKINSFVQGAGLGLSVCKTIVEGLGGTINVYSQLKEGSRFSVILPLNRLHK | not soluble
10 | MISKTSILLLGFACAAVGANYIESAIFKFDDSCEPLEEPRKPEVAKCYEPSTSLPKTLEEYRAMGYDWGEFVHDDKADQAPEGLDEVFTYPMVPFIGMSLLASKKF | not soluble
11 | MLLSIIMPAHNAAAYLERTLALLAQQIAGLEQVEVVAIDDASTDETAKILVEFARTHSWLKAISVDFANVGLARQAGIGLAGGQYVTFLDSDDAFLSGGLAWMVNVLRQRAPDLLMTPLQETGQPLDGTEVAGLFQDVVPLSTQQACDLFCEHQRLQGHFAGKCVTRQILLQHDLAAMECYEDMMTTPHWIVEAKSIVWGEVPVYAYYKRPGSLSDRGQTWRYGKEYIRALQSIEAAFAGRIAVWQTAHLWIGFAKDLLKTSTGRQFLDTQPAVAEKIQSISVWKYLVATQVSCKWKIRFLRVRLRLLEHHHHHH | soluble
12 | MTRVLVLGGGSGGLVAANKVKRLLGKEVEVTLVDRNTHHEFMPAYPWVAFGMREPEAIRRPLANLEKRGIRYLQATVEALDPERNRVKTTAGELSYDYLIVSLGAEALPSPAQDGHAPWSLEGALKLREALRTFKGGKVVVGVSSPYYPCPPAPYEVAGQVEFALKVKGVRDKSTVEVFHLNPAPLAGMGPVISGKVLEILKSKGIAFHGGFEPVEFAGGKVKAKDGRELSYDLLILTPPFAPNRVVRESPLAGPQGFPEVDRMTFRSPRFPNVFVIGDTVNPALMLPPAGVVAHFQGEYVAGVIASDLKGAYIGEPFNPVAMCIMDFGDNALLPQCAFDRVLAGTGMPSCGVMAVGKWVRVTKMLFEGFWFATLIELEHHHHHH | soluble
13 | SLIDKIKSNARDLRRNLTLQERKLWRYLRSRRFSDFKFRRQHPVGSYILDFACCSARVVVELDGGQHDLAVAYDSRRTSWLESQGWTVLRFWNNEIDCNEETVLENILQELNRRSPSP | soluble
14 | MSLSEASFLYLNDIHADPLYSPIIPSKHDCRGDHKKTIDPHKYGQYECDSPMELFESLVSNAKQTNEKPAFILLGGDLIAHGLNTDSKMLKQSFKNVTAPLEAAFPNTSIYITLGNNDFASDYGSFDTDADNFKTAYKVFGKWMNDEQSKTFLKGGYYYADFPEVNLRFLFLNSVMYAAKRDQTQHAEDPYDQFAWIESSYDDAVQKGFKVSVALHIPPGVYYYKNKLGWNEDYITKFSKIMKKCDFSFILSGHSHTDMFLPLYSPTADKDSVLYSLSAPSVSPVNYNNPGYRVFELSNGIVKDYTQYYADLLMNPSVLKWQVEYKFSDAYSASNVTRETINNAAEWVRTTGEGQWRYRERIYTRADEHNAFYYCALKALLPDDIVDCENKLNIDKLSAQPYYKEGHHHHHH | soluble
15 | MVLLHKSTHIFPTDFASVSRAFFNRYPNPYSPHVLSIDTISRNVDQEGNLRTTRLLKKSGKLPTWVKPFLRGITETWIIEVSVVNPANSTMKTYTRNLDHTGIMKVEEYTTYQFDSATSSTIADSRVKFSSGFNMGIKSKVEDWSRTKFDENVKKSRMGMAFVIQKLEEARNPQF | not soluble
16 | MGSLKIYPSKLSGDVKIPPSKSMAHRAVICSSLSNGKSRISNIDFSDDIIATIRAMTSLGAIIEKKEDILEISGIFSKEGILNRENQLNQPKLTIDCNESGSTLRFLVPISLAFDGVKRFIGRGNLGKRPLDTYYEIFDRQNIKYSYKENQLDLIISGKLKPDEFRVKGNISSQFITGLLFILPTLESDSKIIITTELESKGYLDLTLSTIKDFGVEIINNNYKEFIIKGNQTYKARDYKVEGDYSQGAFYLSADAIGEDISILDLKEDSLQGDSEVVEILSRMGMEILREGNKIKGITNGLNGTLIDASQCPDIIPVLSVVASLSIGKTTIINAGRLRIKECDRLHAINVELSKLGANIEEKEDSLIIEGVSKLNGGVEVWSHKDHRIAMTLAIASCRCDKPIILKDFECVSKSYPHFFKDFKMLGGRIDEWNMGK | not soluble
17 | MSLTPSMRRTRIVCISDTHNCQVKLPEGDVLIHAGDLTNQGSHAELAKTVAWLEKQDFEAKIVIAGNHDITLDPEFYAEHGLYFHNKNPQSHDECLRLFTSSPSITYLSHGSANISLTSPSGPRTHFKVFGSPYSPRHGLWAFYYDAPQNPSNWSDLTSLWESIPLDTDIVVTHTPPRMHCDETDERRATGCEALRQALWRVRPQLVVCGHIHDGRGAERVMWDLNCRNVAYQEESVVRWEDPGQGNNKTCLVDLTGKKAPSEGHHHHHH | soluble
18 | MTERILEVNDLHVSFDITAGEVQAVRGVDFYLNKGETLAIVGESGSGKSVTTKAITKLFQGDTGRIKKGEILFLGEDLAKKPENELIKLRGKDISMIFQDPMTSLNPTMQIGKQVMEPLIKHKNYSKAQAKKRALEILNLVGLPNAEKRFKAYPHQFSGGQRQRIVIATALACEPKVLIADEPTTALDVTMQAQILDLMKELQQKIDTAIIFITHDLGVVANIADRVAVMYGGQMVETGDVNEIFYDPKHPYTWGLLSSMPDLSTTNDTPLLAIPGAPPDLLHPPKGDAFARRSQYALDIDFKVEPPWFKVSPTHFVKSWLLDARAPKVELPELVKQRMKPMPNNYEKPLKVERVSFNEK | not soluble
19 | HHHHHHFADLVIQVIDELKQFGVSVKTYGAKGDGVTDDIRAFEKAIESGFPVYVPYGTFMVSRGIKLPSNTVLTGAGKRNAVIRFMDSVGRGESLMYNENVTTGNENIFLSSFTLDGNNKRLGQGISGIGGSRESNLSIRACHNVYIRDIEAVDCTLHGIDITCGGLDYPYLGDGTTAPNPSENIWIENCEATGFGDDGITTHHSQYINILNCYSHDPRLTANCNGFEIDDGSRHVVLSNNRSKGCYGGIEIKAHGDAPAAYNISINGHMSVEDVRSYNFRHIGHHAATAPQSVSAKNIVASNLVSIRPNNKRGFQDNATPRVLAVSAYYGVVINGLTGYTDDPNLLTETVVSVQFRARNCSLNGVVLTGFSNSENGIYVIGGSRGGDAVNISNVTLNNSGRYGVSIGSGIENVSITNISGIGDGINSPVALVSTINSNPEISGLSSIGYPTVARVAGTDYNDGLTLFNGAFRASTTSSGKIHSEGFIMGSTSGCEASVSKSGVLTSSSSKTSSERSLIAGSSTSEAKGTYNTILGSLGAVADEQFAALISASQSRASGNHNLILSSYGINTTGSYKVNGGFEKINWELDSLNGRIKARDTVTGGNTWSDFAEYFESLGGQVIETGYLVTLEKGKIRKAEKGEKIIGVISETAGFVLGESSFEWQGAVLKNEFGGIIYEEVTTEDGVKFKRPLPNPDFDPNKNYIPRSQRREWHVVGLLGQIAVRIDETVKQGHSIDAVGGVATDGDNFIVQEITTPYTKEKGYGVAIVLVK | soluble
20 | MGSDKIHHHHHHMASTTPEGLEIRPRHLDFDLPDPMPRHWHSGDAFKTHMFNAMSVLFPDGERFFIDSVRHYRERVEDPALKQQIRGFIGQEGHHSREHLVYSDRLRALGYDIDRLEGGAKRRIRFAQQKLHPSRQLAATAALEHLTAIMADGLLSNPRWLEGADPTMARLWRWHALEETEHKAVAYDVFMLVNGKARLRRRAMVQGTFFFALDTTKGLVHMLKRDGLLWNFKVWRDGIKWLWGKDGVFRSLVGVYLDFYKKDFHPWQHNNLHLIEQYRDQFEPEPKAA | not soluble
